In patent publication US6096504A, “Maize glutathione-S-transferase enzymes” (E. I. du Pont Nemours and Company, priority 1999, dated 2000):

How the values were obtained:
Assay type in all cases: biochemical
Conditions in all cases: purified enzyme, 0.4 mM electrophilic substrate, 4 mM glutathione, 0.1 M MOPS pH 7.0
[1] = GST conjugation of ethacrynic acid with glutathione (HPLC)
From the text: (§1) The GST enzymes, expressed and purified as described in Example 5 were screened for their ability to metabolize a variety of substrates. Substrates tested included the three herbicide electrophilic substrates chlorimuron ethyl, alachlor, and Atrazine, and four model electrophilic substrates, 1-chloro-2,4-dinitrobenzene (CDNB), ethacrynic acid, t-stilbene oxide, and 1,2-epoxy-3-(p-nitrophenoxy)propane. The enzymes were purified as described in Example 5 and used in the following assay.
(§2) For each enzyme, the conjugation reaction with each electrophilic substrate was performed by incubating 0.3 to 30 μg enzyme in 0.1 M MOPS (pH 7.0) containing 0.4 mM of the electrophilic substrate. The reaction was inititated by the addition of glutathione to a final concentration of 4 mM. After 5 to 30 min, the reaction was terminated by the addition of 45 μL acetonitrile, microfuged for 10 min to remove precipitated protein, and then the supernatent was removed and added to 65 μl of water. This sample was chromatographed on a Zorbax C8 reverse phase HPLC column (3 μm particle size, 6.2 mm×8 cm) using a combination of linear gradients (flow=1.5 mL/min) of 1% H3 PO4 in water (solvent A) and 1% H3 PO4 in acetonitrile. The gradient started with 5% solvent B, progressing from 5% to 75% solvent B between 1 and 10 min, and from 75% to 95% solvent B between 10 and 12 min. Control reactions without enzyme were performed to correct for uncatalyzed reaction. Quantitation of metabolites were based on an assumption that the extinction coefficient of the conjugate was identical to that of the electrophilic substrate.

[2] = GST conjugation of Atrazine with glutathione (HPLC)
From the text: as §1, §2

[3] = GST conjugation of alachlor with glutathione (HPLC)
From the text: as §1, §2

[4] = GST conjugation of chlorimuron ethyl with glutathione (HPLC)
From the text: as §1, §2

[5] = GST conjugation of CDNB with glutathione (HPLC)
From the text: as §1, §2

[6] = GST conjugation of t-stilbene oxide with glutathione (HPLC)
From the text: as §1, §2

[7] = GST conjugation of 1,2-epoxy-3-(p-nitrophenoxy)propane with glutathione (HPLC)
From the text: as §1, §2

B1: ceb5.pk0049.a11: maize class III GST enzyme encoded by cDNA clone, expressed in E. coli (protein)
chain: MAEEKKQGLQLLDFWVSPFGQRCRIALDEKGLAYEYLEQDLRNKSELLLRANPVHKKIPVLLHDGRPVCESLVIVQYLDEAFPEAAPALLPADPYARAQARFWADYVDKKLYDCGTRLWKLKGDGQAQARAEMVEILRTLEGALGDGPFFGGDALGFVDVALVPFTSWFLAYDRFGGVSVEKECPRLAAWAKRCAERPSVAKNLYPPEKVYDFVCGMKKRLGIE
- activity of enzyme with Ethacrynic Acid [1]: 102 nmol/min/mg
- activity of enzyme with Atrazine [2]: 0.01 nmol/min/mg
- activity of enzyme with Alachlor [3]: 18 nmol/min/mg
- activity of enzyme with Chlorimuron-Ethyl [4]: 0.4 nmol/min/mg
- activity of enzyme with CDNB [5]: 3939 nmol/min/mg
- activity of enzyme with t-Stilbene Oxide [6]: 0.01 nmol/min/mg
- activity of enzyme with 1,2-epoxy-3-(p-nitrophenoxy)propane [7]: 30 nmol/min/mg

B2: ceb5.pk0051.f8: maize class III GST enzyme encoded by cDNA clone, expressed in E. coli (protein)
chain: MAGETKKGLVLLDFWVSPFGQRCRIALAEKGIAYEYSEQELLGGAKSDILLRSNPVHKKIPVLLHDGRPVCESLVILEYLEEAFPEASPRLLPDAAYARAQARFWAAYSDKVYKAGTRLWKLRGDARAQARAEIVQVVRNLDGELGDKAFFGGEAFGFVDVALVPFVPWLPSYERYGDFSVAEIAPRLAAWARRCAQRESVARTLHPPEKVDEFINLLKKTYGIE
- activity of enzyme with Ethacrynic Acid [1]: 117 nmol/min/mg
- activity of enzyme with Atrazine [2]: 0.08 nmol/min/mg
- activity of enzyme with Alachlor [3]: 27 nmol/min/mg
- activity of enzyme with Chlorimuron-Ethyl [4]: 1.9 nmol/min/mg
- activity of enzyme with CDNB [5]: 2136 nmol/min/mg
- activity of enzyme with t-Stilbene Oxide [6]: 0.02 nmol/min/mg
- activity of enzyme with 1,2-epoxy-3-(p-nitrophenoxy)propane [7]: 14 nmol/min/mg

B3: ceb1.pk0017.a5: maize class I GST enzyme encoded by cDNA clone, expressed in E. coli (protein)
chain: MAAPVTVYGPMLSPAVARVAACLLEKDVPFQIEPVDMSKGEHKSPSFLKLQPFGQVPAFKDHLTTVFESRAICRYICDQYADSGNQALFGKKEDGAVGRAAIEQWIESEGQSFNPPSLAIIFQLAFAPMMGRTTDLAVVEQNEAKLAKVLDVYDQRLGESQYFAGDDFSPGRPCALAQCRFPCEQNQQGWLDHREKESC
- activity of enzyme with Ethacrynic Acid [1]: 5 nmol/min/mg
- activity of enzyme with Atrazine [2]: 0.00 nmol/min/mg
- activity of enzyme with Alachlor [3]: 0 nmol/min/mg
- activity of enzyme with Chlorimuron-Ethyl [4]: 0.1 nmol/min/mg
- activity of enzyme with CDNB [5]: 15 nmol/min/mg
- activity of enzyme with t-Stilbene Oxide [6]: 0.00 nmol/min/mg
- activity of enzyme with 1,2-epoxy-3-(p-nitrophenoxy)propane [7]: 0 nmol/min/mg

B4: cs1.pk0010.c5: maize class I GST enzyme encoded by cDNA clone, expressed in E. coli (protein)
chain: MAAGLQVFGQPASTDVARVLTCLFEKKLEFELVRIDTFKTHHRLPEFIRLRDPNGQVTFKHGDKTLVDSRDICRYVCNQFPNYGNKSLYGSGALERASIEQWLQAEAQNFGPPSSALVFQLAFVPHLSHLGVRQDPAVIAENEDKLKQVLDVYDEILSKNEYLAGDEFTLADLSHLPNSHYIVNTERGRKLFTNKKNVAKWYDRLSKRETWVQVVKMQKEHPGAFK
- activity of enzyme with Ethacrynic Acid [1]: 9 nmol/min/mg
- activity of enzyme with Atrazine [2]: 0.00 nmol/min/mg
- activity of enzyme with Alachlor [3]: 0 nmol/min/mg
- activity of enzyme with Chlorimuron-Ethyl [4]: 0.1 nmol/min/mg
- activity of enzyme with CDNB [5]: 30 nmol/min/mg
- activity of enzyme with t-Stilbene Oxide [6]: 0.00 nmol/min/mg
- activity of enzyme with 1,2-epoxy-3-(p-nitrophenoxy)propane [7]: 0 nmol/min/mg

B5: bms1.pk0023.g8: maize class I GST enzyme encoded by cDNA clone, expressed in E. coli (protein)
chain: MAPPMKVYGWAVSPWMARALVCLEEAGADYEIVPMSRCGGDHRRPEHLAKNPFGEIPVLEDGDLTLYQSRAIARYVLRKLKPELLREGDLEGSAMVDAWMEVEAHHMEPALWPIIRHSIIGQYVGRERDHQAVIDENLDRLRKVLPAYEARLSVCKYLVGDDISAADLCHFGFMRYFMATEYAGLVDAYPHVKAWWDALLARPSVQKVMAGMPPDFGYASGNIP
- activity of enzyme with Ethacrynic Acid [1]: 13 nmol/min/mg
- activity of enzyme with Atrazine [2]: 0.00 nmol/min/mg
- activity of enzyme with Alachlor [3]: 0 nmol/min/mg
- activity of enzyme with Chlorimuron-Ethyl [4]: 0.2 nmol/min/mg
- activity of enzyme with CDNB [5]: 15 nmol/min/mg
- activity of enzyme with t-Stilbene Oxide [6]: 0.00 nmol/min/mg
- activity of enzyme with 1,2-epoxy-3-(p-nitrophenoxy)propane [7]: 0 nmol/min/mg

B6: m.15.5.d06.sk20: maize class II GST enzyme encoded by cDNA clone, expressed in E. coli (protein)
chain: MAEVEATVGRLMLYSYWRSSCSHRARIALNLKGVDYEYKAVNLLKGEQSDPEFVKLNPMKFVPALVDGSSVIGDSYAITLYLEDKYPEPPLLPQDLQKKALNHQIASIVASGIQPLHNLTVLRFIDQKVGAGESVLWTQQQIERGFTAIENLIQLKGCAGKYATGDEVQLADVFLAPQIYAAIERTKIDMSNYLTLARLHSEYMSHPAFEAALPGKQPDAPSSS
- activity of enzyme with Ethacrynic Acid [1]: 17 nmol/min/mg
- activity of enzyme with Atrazine [2]: 0.00 nmol/min/mg
- activity of enzyme with Alachlor [3]: 0 nmol/min/mg
- activity of enzyme with Chlorimuron-Ethyl [4]: 0.1 nmol/min/mg
- activity of enzyme with CDNB [5]: 45 nmol/min/mg
- activity of enzyme with t-Stilbene Oxide [6]: 0.00 nmol/min/mg
- activity of enzyme with 1,2-epoxy-3-(p-nitrophenoxy)propane [7]: 1 nmol/min/mg
